Results reported in publication PMC12607630, “ZapC crosslinks FtsZ filaments through a dual-binding mechanism modulated by the intrinsically disordered linker of FtsZ in Escherichia coli” (mBio, 2025).
Substitutions are numbered along the chain they refer to. In names and notes the source's numbering stands. Several values for one entry are separate records, joined by “and”; a condition that tells them apart may be missing. Equal values may be shown once.

B1: FtsZ^1–370 (domain or fragment, Escherichia coli, UniProt P0A9A6 1-370, looked up)
chain: MFEPMELTNDAVIKVIGVGGGGGNAVEHMVRERIEGVEFFAVNTDAQALRKTAVGQTIQIGSGITKGLGAGANPEVGRNAADEDRDALRAALEGADMVFIAAGMGGGTGTGAAPVVAEVAKDLGILTVAVVTKPFNFEGKKRMAFAEQGITELSKHVDSLITIPNDKLLKVLGRGISLLDAFGAANDVLKGAVQGIAELITRPGLMNVDFADVRTVMSEMGYAMMGSGVASGEDRAEEAAEMAISSPLLEDIDLSGARGVLVNITAGFDLRLDEFETVGNTIRAFASDNATVVIGTSLDPDMNDELRVTVVATGIGMDKRPEITLVTNKQVQQPVMDRYQQHGMAPLTQEQKPVAKVVNDNAPQTAKEPD
notes: FtsZ, Escherichia coli, residues 1-370; Plasmid construction is in the Supplemental Information; also called FtsZ lacking the CTP; source: E. coli BL21(DE3), SUMO-tag purification system, purified; not shown: 6×His, N-terminal, cleaved; SUMO, N-terminal, cleaved
B2: 6×His-ZapC F30D, K94D (natural protein)
chain: not shown
notes: ZapC of Escherichia coli with F30D and K94D; Derivative of pSD323 by site-directed mutagenesis; also called ZapC^F, K; -ZapCF, K; source: E. coli, plasmid pLY317 (pQE80L, Plac::6Xhis-zapC F30D, K94D), purified (Ni-NTA); not shown: His6, N-terminal, kept
B3: FtsZ (wild-type, untagged) (natural protein, Escherichia coli, UniProt P0A9A6 1-383, looked up)
chain: MFEPMELTNDAVIKVIGVGGGGGNAVEHMVRERIEGVEFFAVNTDAQALRKTAVGQTIQIGSGITKGLGAGANPEVGRNAADEDRDALRAALEGADMVFIAAGMGGGTGTGAAPVVAEVAKDLGILTVAVVTKPFNFEGKKRMAFAEQGITELSKHVDSLITIPNDKLLKVLGRGISLLDAFGAANDVLKGAVQGIAELITRPGLMNVDFADVRTVMSEMGYAMMGSGVASGEDRAEEAAEMAISSPLLEDIDLSGARGVLVNITAGFDLRLDEFETVGNTIRAFASDNATVVIGTSLDPDMNDELRVTVVATGIGMDKRPEITLVTNKQVQQPVMDRYQQHGMAPLTQEQKPVAKVVNDNAPQTAKEPDYLDIPAFLRKQAD
notes: FtsZ, Escherichia coli; Made from the same 6×his-sumo-ftsZ plasmid as the fusion that the methods call full-length FtsZ; also called wild-type FtsZ; untagged FtsZ; source: E. coli BL21(DE3), plasmid pLY17, purified (Ni-NTA; 6×His-SUMO tag removed with Ulp1); not shown: 6×His, N-terminal, cleaved; SUMO, N-terminal, cleaved
B4: 6×His-ZapC (natural protein)
chain: not shown
notes: ZapC, Escherichia coli; also called His-tagged ZapC; source: E. coli, plasmid pSD323 (pQE80, Plac::6×His-ZapC), purified (Ni-NTA) as for FtsZ; not shown: 6×His, N-terminal, kept
B5: ZapC (untagged) (natural protein)
chain: not shown
notes: ZapC, Escherichia coli; also called untagged ZapC; source: E. coli, plasmid pLY28 (pE-SUMO-Amp, PT7::6×his-sumo-zapC), purified (Ni-NTA; 6×His-SUMO tag removed with Ulp1); not shown: 6×His, N-terminal, cleaved; SUMO, N-terminal, cleaved
B6: ZapC (untagged) (natural protein)
chain: not shown
notes: ZapC, FtsZ-associated protein of Escherichia coli; source: E. coli BL21(DE3), plasmid pLY28, purified (Ni-NTA); 6×His-SUMO tag removed with Ulp1; not shown: 6×His-SUMO, N-terminal, cleaved
B7: 6×His-SUMO-FtsZ 316-383 (domain or fragment, Escherichia coli, UniProt P0A9A6 316-383, looked up)
chain: GMDKRPEITLVTNKQVQQPVMDRYQQHGMAPLTQEQKPVAKVVNDNAPQTAKEPDYLDIPAFLRKQAD
notes: source: E. coli BL21(DE3), plasmid pLY342, purified (Ni-NTA); not shown: 6×His-SUMO, N-terminal, kept
B8: SUMO-FtsZ^316-383 (domain or fragment, Escherichia coli, UniProt P0A9A6 316-383, looked up)
chain: B7 chain
notes: Held on Ni-NTA biosensors; plasmid construction is in the Supplemental Information; also called SUMO fusion containing the CTL and CTP; source: E. coli, purified SUMO fusion; not shown: 6×His, N-terminal, kept; SUMO, N-terminal, kept

Columns and labels:
Settings in all cases: both partners purified
6×His-ZapC = target: B4; assay: BLI; 6×His-ZapC or its mutants (0.5 µM) loaded on Ni-NTA biosensors; FtsZ or its variants in solution; Octet-Red96, 30°C, 1× Pol buffer (50 mM HEPES-NaOH pH 6.8, 50 mM KCl, 10 mM MgCl2); apparent Kd from the signal at the end of association, one-site fit
[1] = target: T1, FtsZ (untagged, wild type) (Escherichia coli, UniProt P0A9A6 1-383); assay: BLI; 6×His-ZapC or its mutants (0.5 µM) loaded on Ni-NTA biosensors, untagged FtsZ or its variants in solution; Octet-Red96, 30°C, 1× Pol buffer (50 mM HEPES-NaOH pH 6.8, 50 mM KCl, 10 mM MgCl2); apparent Kd from the signal at the end of association against concentration, one-site fit; three repeats with mean (X) and SD
T1 construct: also called wild-type FtsZ; source: E. coli BL21(DE3), plasmid pLY17, purified (Ni-NTA); 6×His-SUMO tag removed with Ulp1; not shown: 6×His-SUMO, N-terminal, cleaved
T1 sequence (looked up): B3 chain

[2] = target: T2, 6×His-ZapC double mutant (F30D, K94D) (Escherichia coli, UniProt P75862 1-180, F30D | K94D); assay: BLI; 6×His-ZapC or its mutants (0.5 µM) loaded on Ni-NTA biosensors; FtsZ or its variants in solution; Octet-Red96, 30°C, 1× Pol buffer (50 mM HEPES-NaOH pH 6.8, 50 mM KCl, 10 mM MgCl2); apparent Kd from the signal at the end of association, one-site fit
T2 construct: ZapC, Escherichia coli; The text calls it only 'the double mutant' after naming ZapC^F30D and ZapC^K94D; also called the double mutant; source: E. coli, derivative of pSD323, purified (Ni-NTA) as for FtsZ; not shown: 6×His, N-terminal, kept

FtsZ^F285S (untagged) = target: T3, FtsZ^F285S (untagged) (Escherichia coli, UniProt P0A9A6 1-383, F285S); assay: as above
T3 construct: FtsZ, Escherichia coli; source: E. coli BL21(DE3), derivative of pLY17, purified (Ni-NTA; 6×His-SUMO tag removed with Ulp1); not shown: 6×His, N-terminal, cleaved; SUMO, N-terminal, cleaved
T3 sequence (looked up): B3 chain with F285S

[3] = target: B3; assay: as above
SUMO-FtsZ = target: T4, SUMO-FtsZ (Escherichia coli, UniProt P0A9A6 1-383); assay: BLI; SUMO fusions of FtsZ or its parts, or SUMO alone (0.5 µM), held on Ni-NTA biosensors; untagged ZapC in solution; Octet-Red96, 30°C, 1× Pol buffer; apparent Kd from the signal at the end of association, one-site fit
T4 construct: FtsZ, Escherichia coli; also called 6×His-SUMO-FtsZ; SUMO fusion containing full-length FtsZ; source: E. coli BL21(DE3), plasmid pLY17 (pE-SUMO-Amp, PT7::6×his-sumo-ftsZ), purified (Ni-NTA); not shown: 6×His, N-terminal, kept; SUMO, N-terminal, kept
T4 sequence (looked up): B3 chain

6×His-SUMO-FtsZ = target: T5, 6×His-SUMO-FtsZ (Escherichia coli, UniProt P0A9A6 1-383); assay: BLI; 6×His-SUMO fusions of FtsZ or its parts, or SUMO alone (0.5 µM), held on Ni-NTA biosensors, untagged ZapC in solution; Octet-Red96, 30°C, 1× Pol buffer (50 mM HEPES-NaOH pH 6.8, 50 mM KCl, 10 mM MgCl2); apparent Kd from the signal at the end of association against concentration, one-site fit; three repeats with mean (X) and SD
T5 construct: FtsZ of Escherichia coli, full length, fused behind 6×His-SUMO; Forward primer BsaI-out-F starts the FtsZ insert at codon 2; source: E. coli BL21(DE3), plasmid pLY17, purified (Ni-NTA); not shown: 6×His-SUMO, N-terminal, kept
T5 sequence (looked up): B3 chain

ZapC (untagged) [4] = target: B6; assay: as above
ZapC (untagged) [5] = target: B5; assay: BLI; SUMO fusions of FtsZ or its parts, or SUMO alone (0.5 µM), held on Ni-NTA biosensors; untagged ZapC in solution; Octet-Red96, 30°C, 1× Pol buffer; apparent Kd from the signal at the end of association, one-site fit

## B1
6×His-ZapC
  fold decrease of affinity against wild-type FtsZ: ~3 fold

## B2
[1]
  Kd: 6.39 µM and 5.16 µM and 4.77 µM and 5.44 µM

## B3
[2]
  fold increase of Kd against wild-type ZapC: 12 fold

## B4
FtsZ^F285S (untagged)
  Kd: 6.37 µM
[3]
  Kd: 0.39 µM

## B5
SUMO-FtsZ
  Kd: 1.5 µM

## B6
6×His-SUMO-FtsZ
  Kd: 1.5 µM and 1.28 µM and 1.9 µM and 1.56 µM

## B7
ZapC (untagged) [4]
  Kd: 11.2 µM and 10.4 µM and 8.11 µM and 9.89 µM

## B8
ZapC (untagged) [5]
  Kd: 10 µM
